Laboratory results published in patent US20030092632A1, “Sulfated CCR5 peptides for HIV-1 infection” (priority 2001, published 2003).

Assays:
CCR5+ cells = details: pre-treatment of target cells; Farzan et al. 1999; cited from earlier work
[1] = target: envelope glycoproteins from HIV-1 strain JR-FL on NLluc+env- pseudotyped particles (HIV-1 JR-FL); assay: cell-based or functional assay
CCR5 = assay: flow cytometry on L1.2-CCR5+ cells, no peptide (defined as 100%), PE-streptavidin
HIV-1 = details: by associating with CD4 or gp120; literature; cited from earlier work

[Na+].[O-][Cl+2]([O-])[O-] [sodium chlorate]
Binding of a gp120/CD4 complex to CCR5+ cells (CCR5+ cells): decreased

CCR5 Nt peptide S-3/10/14
inhibition of viral entry, luciferase-based single round of entry assay, HeLa-CD4+CCR5+ and U87MG-CD4+CCR5+ cells, peptide 100 µM [1]: 50%

CCR5 Nt peptide S-10/14
inhibition of viral entry, luciferase-based single round of entry assay, HeLa-CD4+CCR5+ and U87MG-CD4+CCR5+ cells, peptide 100 µM [1]: 50%

biotinylated gp120JR-FL/CD4-IgG2 complex
m.f.i. (CCR5): 40 m.f.i.

dextran sulfate
Inhibition of HIV-1 entry (HIV-1): can inhibit HIV-1 entry
